{"source": "patent EP3464323B1", "binders": {"B1": {"name": "CADY (peptide)", "peptide": "GLWRALWRLLRSLWRLLWKV", "modifications": "also: acetate salt"}}, "biological_target": "CY5-CAS9:sgRNA complex (1:1 molar ratio) (S. pyogenes), Q99ZW2", "sequence (Q99ZW2 whole entry, one chain of several)": "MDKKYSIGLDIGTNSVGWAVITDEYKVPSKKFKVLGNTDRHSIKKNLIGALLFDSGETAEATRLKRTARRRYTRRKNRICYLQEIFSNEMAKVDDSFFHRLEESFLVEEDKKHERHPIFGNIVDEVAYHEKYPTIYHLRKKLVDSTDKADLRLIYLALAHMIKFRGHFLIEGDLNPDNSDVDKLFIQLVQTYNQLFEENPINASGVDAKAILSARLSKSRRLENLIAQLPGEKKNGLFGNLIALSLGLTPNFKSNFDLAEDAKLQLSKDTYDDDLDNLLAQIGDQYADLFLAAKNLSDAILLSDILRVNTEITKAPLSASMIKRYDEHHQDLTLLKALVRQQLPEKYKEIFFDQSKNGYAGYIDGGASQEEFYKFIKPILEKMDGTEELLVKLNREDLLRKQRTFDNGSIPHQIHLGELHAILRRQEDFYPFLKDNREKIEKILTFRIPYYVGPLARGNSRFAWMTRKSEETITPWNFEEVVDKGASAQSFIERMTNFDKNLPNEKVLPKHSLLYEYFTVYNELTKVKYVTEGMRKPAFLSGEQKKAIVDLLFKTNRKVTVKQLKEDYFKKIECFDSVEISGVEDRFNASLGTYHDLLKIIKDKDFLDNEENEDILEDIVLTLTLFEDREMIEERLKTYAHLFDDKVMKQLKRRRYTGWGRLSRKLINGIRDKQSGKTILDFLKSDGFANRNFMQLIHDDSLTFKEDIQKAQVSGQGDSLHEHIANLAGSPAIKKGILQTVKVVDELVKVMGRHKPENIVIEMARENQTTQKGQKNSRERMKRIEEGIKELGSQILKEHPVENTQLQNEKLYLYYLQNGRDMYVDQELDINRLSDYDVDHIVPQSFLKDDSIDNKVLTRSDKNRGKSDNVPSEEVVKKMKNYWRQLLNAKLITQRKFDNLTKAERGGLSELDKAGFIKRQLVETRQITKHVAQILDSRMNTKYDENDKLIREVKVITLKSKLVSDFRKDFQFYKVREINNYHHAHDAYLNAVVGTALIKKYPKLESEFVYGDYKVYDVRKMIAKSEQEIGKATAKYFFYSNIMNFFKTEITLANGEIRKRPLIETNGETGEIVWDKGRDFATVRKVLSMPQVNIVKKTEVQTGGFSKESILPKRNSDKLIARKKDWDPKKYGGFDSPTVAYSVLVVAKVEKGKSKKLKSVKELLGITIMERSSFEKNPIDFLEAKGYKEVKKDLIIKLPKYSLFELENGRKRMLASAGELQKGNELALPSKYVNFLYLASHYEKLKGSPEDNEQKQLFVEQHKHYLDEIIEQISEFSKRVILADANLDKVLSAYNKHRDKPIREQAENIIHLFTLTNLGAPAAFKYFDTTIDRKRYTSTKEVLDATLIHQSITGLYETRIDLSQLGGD", "experiment": "fluorescence titration; 5 nM CY5-CAS9:sgRNA (1:1) titrated with peptide, quadratic fit", "details": "remark: other sources report otherwise", "note": "No end group written: not given here."}
{"binder": "B1", "values": [{"measurement": "Kd", "result": 21, "unit": "nM"}]}
